The values that follow come from patent US20230071371A1 (Scripps Research, published 2023).

Bridges are numbered along the chain shown (N, C = ends). Where no end group is shown, it is not given here. [ ]: non-standard residue; d: D form. L5A = not defined here; Aib = CC(C)(N)C(=O)O

For experiment [1], the target named is T1, human GLP-1R (human, UniProt P43220 24-463).
Target sequence in this assay (P43220 24-463): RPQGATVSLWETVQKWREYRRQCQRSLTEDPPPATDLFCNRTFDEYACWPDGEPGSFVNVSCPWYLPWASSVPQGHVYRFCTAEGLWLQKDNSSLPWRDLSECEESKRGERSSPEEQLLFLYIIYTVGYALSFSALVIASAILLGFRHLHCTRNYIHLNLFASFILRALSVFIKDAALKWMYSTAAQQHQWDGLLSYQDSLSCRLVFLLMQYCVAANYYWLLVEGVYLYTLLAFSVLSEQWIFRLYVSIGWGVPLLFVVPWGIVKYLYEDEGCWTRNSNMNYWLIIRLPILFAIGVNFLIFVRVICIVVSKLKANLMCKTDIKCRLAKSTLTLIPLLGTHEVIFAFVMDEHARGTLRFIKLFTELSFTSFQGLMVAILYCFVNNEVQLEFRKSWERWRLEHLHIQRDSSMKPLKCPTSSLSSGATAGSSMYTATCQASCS
The next experiment has as its target T2, human GIPR (human, UniProt P48546 22-466).
T2 sequence (looked up): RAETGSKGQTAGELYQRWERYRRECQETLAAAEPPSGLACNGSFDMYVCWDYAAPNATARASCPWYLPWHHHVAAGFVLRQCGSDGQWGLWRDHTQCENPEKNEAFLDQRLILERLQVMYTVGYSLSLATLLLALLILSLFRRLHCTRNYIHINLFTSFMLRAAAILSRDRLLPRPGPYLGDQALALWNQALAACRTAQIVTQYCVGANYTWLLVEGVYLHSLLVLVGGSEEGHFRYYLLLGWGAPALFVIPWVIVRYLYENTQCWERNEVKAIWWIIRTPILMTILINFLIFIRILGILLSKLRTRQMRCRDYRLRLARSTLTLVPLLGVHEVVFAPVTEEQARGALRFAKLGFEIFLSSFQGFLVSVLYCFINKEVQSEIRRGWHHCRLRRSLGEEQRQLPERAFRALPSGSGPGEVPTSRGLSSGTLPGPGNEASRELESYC

Experiment [2] deals with human serum albumin (human) (UniProt P02768). Put plainly: calculated from the SPR affinity.
Chain of human serum albumin (human) (P02768 25-609 limits assumed): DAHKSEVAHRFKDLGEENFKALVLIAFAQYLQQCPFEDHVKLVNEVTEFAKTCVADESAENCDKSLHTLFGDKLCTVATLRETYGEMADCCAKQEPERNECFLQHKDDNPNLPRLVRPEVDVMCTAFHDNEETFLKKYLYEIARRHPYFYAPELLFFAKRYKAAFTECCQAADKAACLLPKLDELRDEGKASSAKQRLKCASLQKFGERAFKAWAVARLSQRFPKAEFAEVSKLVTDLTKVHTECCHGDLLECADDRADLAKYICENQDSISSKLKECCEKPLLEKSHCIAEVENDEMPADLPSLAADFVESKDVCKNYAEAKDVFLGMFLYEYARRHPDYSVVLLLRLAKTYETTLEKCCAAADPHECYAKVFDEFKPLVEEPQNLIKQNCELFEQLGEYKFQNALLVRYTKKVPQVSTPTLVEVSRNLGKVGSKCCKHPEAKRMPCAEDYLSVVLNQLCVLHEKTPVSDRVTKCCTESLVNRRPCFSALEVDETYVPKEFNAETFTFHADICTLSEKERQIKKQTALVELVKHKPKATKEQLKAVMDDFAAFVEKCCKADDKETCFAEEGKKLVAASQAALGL
The target in another experiment is rat serum albumin (rat) (UniProt P02770). Put plainly: calculated from the SPR affinity.
Chain of rat serum albumin (rat) (P02770 25-608 limits assumed): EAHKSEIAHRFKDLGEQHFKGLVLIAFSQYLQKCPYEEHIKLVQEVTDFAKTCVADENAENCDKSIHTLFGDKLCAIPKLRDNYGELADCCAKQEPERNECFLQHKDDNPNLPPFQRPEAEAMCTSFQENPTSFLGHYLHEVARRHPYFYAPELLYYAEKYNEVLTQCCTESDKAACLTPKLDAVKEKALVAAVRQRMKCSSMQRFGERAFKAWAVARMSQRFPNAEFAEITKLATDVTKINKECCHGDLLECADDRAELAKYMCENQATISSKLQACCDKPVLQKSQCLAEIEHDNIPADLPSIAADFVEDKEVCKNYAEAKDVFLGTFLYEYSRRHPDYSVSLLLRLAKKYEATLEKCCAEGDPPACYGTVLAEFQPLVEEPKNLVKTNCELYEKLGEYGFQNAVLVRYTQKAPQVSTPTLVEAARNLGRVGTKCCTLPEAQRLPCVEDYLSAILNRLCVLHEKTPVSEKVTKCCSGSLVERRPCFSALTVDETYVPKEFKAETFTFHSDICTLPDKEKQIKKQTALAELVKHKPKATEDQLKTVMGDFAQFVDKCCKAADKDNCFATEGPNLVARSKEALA
Experiment [3] addresses T1, human GLP-1R. The experiment is described as follows: cell-based or functional assay.
A further experiment concerns the target human GCGR (human) (UniProt P47871). The experiment is described as follows: cell-based or functional assay.
A further experiment addresses human GLP-1R (human) (UniProt P43220). The experiment is described as follows: cell-based or functional assay.

Chain of human GCGR (human) (P47871 26-477): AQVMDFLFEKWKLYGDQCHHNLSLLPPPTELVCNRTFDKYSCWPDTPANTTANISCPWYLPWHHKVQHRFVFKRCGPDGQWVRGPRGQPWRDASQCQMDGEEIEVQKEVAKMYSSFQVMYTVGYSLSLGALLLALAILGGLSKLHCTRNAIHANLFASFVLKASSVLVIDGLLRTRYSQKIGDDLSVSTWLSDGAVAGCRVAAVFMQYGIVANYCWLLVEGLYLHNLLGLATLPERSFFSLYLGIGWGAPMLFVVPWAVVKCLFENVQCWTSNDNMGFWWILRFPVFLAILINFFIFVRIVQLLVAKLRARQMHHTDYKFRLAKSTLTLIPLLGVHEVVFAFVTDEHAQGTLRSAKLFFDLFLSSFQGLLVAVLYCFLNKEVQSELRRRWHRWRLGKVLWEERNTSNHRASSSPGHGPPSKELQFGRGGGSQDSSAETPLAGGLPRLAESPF
Chain of human GLP-1R (human) (P43220 24-463): as the sequence (P43220 24-463) above

Consider Tirzepatide (peptide), for which, in the experiment with human GLP-1R [1], the EC50 (read off the curve), CRE-luciferase reporter, GLP1R-Creluc worked out at 200 pM.

As to NNC0090-2746 (peptide), the EC50 (read off the curve), CRE-luciferase reporter, GIPR Creluc with human GIPR turned out to be 8 pM.

Regarding semaglutide (peptide), the results for the fu (unbound fraction) (in experiment [2]; with rat serum albumin (rat)) were 0.69% and 3.3%, respectively.

For H[Aib]EGTFTSDVSSYLEGCAAKEFICWLVKGRG-OH (linker 17-24 via L5A; reading uncertain) [Conjugate 186], the “EC50 Cre-Luc” value in the experiment with human GLP-1R [3] turned out to be 7300 pM.

Consider HXEGTFTSDVSSYLEGKAAKEFIKWLVKGRG (staple K5 on Lys 17, 24; Aib 2; C-terminal -OH) [Conjugate 181], for which, in the experiment with human GLP-1R [3], the “EC50 cAMP 0% FBS” value came out at 26 pM.

As for H[dS]QGTFTSDYSKYLDECAAKEFICWLLNGGPSSGAPPPS (linker 17-24 via L5A; ends not checked) [Conjugate 138], the EC50 cAMP 0% FBS with human GCGR (human) turned out to be 1420 pM; with human GLP-1R (human) it was 908 pM.
